Experimental data as given in patent US6200577A, “Anti-herpesviral agents and assays therefor” (priority 1996, dated 2001).
Entries after “also recorded” stand apart in the source; their conditions may differ.

Key:
VP16 = target: T1, VP16 (Human herpesvirus 1, UniProt P06492); assay: ELISA of direct binding of VP16 to plate-coated peptides; design: species or system HSV-1; conditions: wells coated with peptide up to 500 μg/ml; VP16 1.6 μg/ml; FIG. 10
T1 construct: Plasmid pETVP16 was used to express full-length VP16 under the control of the T7 RNA polymerase promoter; made in house; host or cells: E. coli BL21(DE3)
Protocol: FIG. 10 Binding of VP16 to peptides. Microtitre plates were coated with 5-fold dilutions of peptides ranging from 500 μg/ml to 1 μg/ml and blocked with PBS/10% NCS. VP16 was then added to a final concentration of 1.6 μg/ml and detected with LP1. The legend for the peptides added is shown to the right of the graph.
(§1) Dilutions of proteins in PBS were coated overnight onto flat bottomed micro-titre plates (Dynatech) at 37° C. and then blocked with either 2% BSA or 10% new-born calf serum (NCS) in PBS for 1 hour at 37° C. Specific binding of a second protein to the plate-bound protein was performed for 1.5-2 hours at ambient temperature. a Excess secondary protein was removed by washing four times with PBS, 0.3% Tween 20. Bound protein was detected by incubation for 1.5-2 hours with LP1 antibody in PBS, 1% gelatin or PBS, 2% NCS. The bound antibody was detected by incubation for 1 hour at ambient temperature with anti-mouse antibody conjugated to HRP (1:500) and visualised with Smg/ml enzyme substrate 2,2'-azino-bis(3-ethylbenzthiazoline-6-sulphonic acid) (ABTS; Sigma) in citrate-phosphate buffer containing 6 μl hydrogen peroxide in a total volume of 20 ml. Optical densities were measured on a Titertek Multiscan PLUS instrument.
To examine whether VP16 could bind directly to the peptides, wells were coated with each peptide (A-J) at a range of concentrations from […] to 500 μg/ml and the plate was then blocked with […]. […] Nonetheless, the data for peptides D and E implicate direct binding of these peptides to VP16 as the mechanism for inhibiting its interaction with VP22. Peptide H also was active in experiments which prevented gB binding to VP22trunc [Section 4 (iii)] and thus also forms an aspect of the invention.

[1] = Solubility of synthetic peptides in buffer; format: physicochemical; conditions: peptides dissolved in 20 mM Tris-HCl, pH 8.0, 250 mM NaCl; unpurified preparations
Protocol: Synthesis and Purification of Oligopeptides. Peptides were synthesised by continuous flow Fmoc chemistry (Atherton and Sheppard, 1989; McLean et al., 1991) and, where stated in the text, were purified by preparative reverse-phase HPLC (Owsianka et al., 1993). The Mr values of peptides were determined by fast atom bombardment mass spectrometry (M-Scan) and corresponded to the predicted values. Peptides were dissolved in 20 mM Tris-HCl, pH 8.0, 250 mM NaCl and centrifuged at 11,500 g for 1 minute prior to use. […] Precipitates were removed by centrifugation before use.

[2] = target: T2, VP16/VP22trunc interaction (Human herpesvirus 1, UniProt P06492); assay: ELISA of peptide inhibition of VP16 binding to VP22trunc; design: species or system HSV-1; conditions: D and E pure preparations, effect at 100 and 500 μg/ml; VP16 1.6 μg/ml; 160 ng VP22trunc; FIG. 9
T2 construct: Plasmid pETVP16 was used to express full-length VP16 under the control of the T7 RNA polymerase promoter; made in house; host or cells: E. coli BL21(DE3)
Protocol: FIG. 9 Inhibitory effect of peptides D and E on the VP22trunc-VP16 interaction in ELISAs. Microtitre plates were coated with 160 ng of VP22trunc and blocked with PBS/10% NCS. Before addition to the wells, five-fold dilutions of the peptides, ranging from 500 μg/ml to 1 g/ml, were incubated with VP16 (1.6 μg/ml). Bound VP16 was detected with LP1 at a dilution of 1:1000. The legend for the peptides added is shown to the right of the graph. Values are shown relative to those obtained in the absence of the peptide.
as §1
To adopt a more quantitative approach, an ELISA for VP16 binding to VP22trunc was developed. Optimal conditions were determined by coating wells with various quantities of VP22trunc followed by blocking with 2% BSA. Plates were then incubated with dilutions of VP16 and the bound VP16 detected with LP1.
The studies presented above have provided strong evidence in support of peptide inhibition of the interaction between VP16 and VP22. However, quantitative analysis of the ability of peptides to block any interaction is difficult to perform by the above methods. Therefore, using the ELISA system described in Results Section 2(iii) with the exception that PBS/10% NCS was utilised as a blocking agent, the inhibitory effects of peptides D and E were examined. This modification arose due to nonspecific binding of the peptides to wells when BSA was used for blocking (data not shown).

[3] = target: T2, VP16/VP22trunc interaction; assay: Far Western analysis of peptides blocking VP16 binding to immobilised VP22trunc; design: species or system HSV-1
Protocol: FIG. 7 Far Western analysis of the ability of peptides to block the interaction between VP16 and immobilised VP22trunc. Purified VP22trunc was added to partially purified extract of VP16 and the sample run on a 12% polyacrylamide gel. Proteins were then transferred to nitrocellulose membrane and the blot was cut into strips, with each strip containing approximately 1 g of VP22trunc. In (A), strips were pre-incubated with 1 mg of each of the following peptides: lane 2, no peptide, lane 3, peptide C; lane 4, peptide D; lane 5, peptide E; lane 6, peptide F; lane 7, peptides D and E; lane 8, peptides C and F. In (B) strips were pre-incubated with 1 mg of each of the following peptides: lane 2, no peptide, lane 3, peptide C; lane 4, purified peptide D; lane 5, purified peptide E; lane 6, peptide F. 24 g of pure VP16 was then added to strips 2 to 8 in (A) and strips 2 to 6 in (B), followed by incubation with LP1 antibody (1:1000 dilution). As a control, portions of the blot were incubated with LP1 or the 9220 antibody at a dilution of 1:1000 (lane 1 for LP1 in A and B; lane 9 in A and lane 7 in B for 9220). The apparent molecular weights of VP16 (65 KDa) and the dimer (32 KDa) and monomer (16 KDa) forms of VP22trunc are shown.
Following electrophoresis, proteins were electrotransferred to either Hybond or ProBlott (Applied Biosystems) membrane and the membrane was incubated in renaturation buffer (50 mM Tris-HCl, pH 8.0, 150 mM NaCl, 10% glycerol, 1 mM DTT) at 4° C. for 5-6 hours.
For membranes probed with either VP16 or VP22trunc, blocking was performed overnight as described for Western blot analysis. Probing with epitope-tagged VP22 or VP16 was performed in 20 mM Tris-HCl, pH 8.0, 250 mM NaCl for 1.5 hours at ambient temperature. Excess probe was removed by washing 4 times (10 minutes per wash) in 20 mM Tris-HCl, pH8.0, 250 mM NaCl, followed by incubation with the appropriate antibody at a dilution of 1:1000 in TTBS/1% gelatin for 1.5-2 hours. Bound antibody was detected as described for Western blot analysis.
Based on the studies with soluble VP16 and VP22trunc presented above, only a restricted number of peptides were examined by Far Western analysis to identify those that may prevent binding of VP16. Thus, VP22trunc was added to a crude extract of bacterially expressed VP16 and the proteins were electrophoresed on a polyacrylamide gel followed by transfer to a membrane. […] Before the addition of VP16 the blot strips in lanes 3 to 8 were incubated with crude preparations of peptides C, D, E, or E' as well as mixtures of either 0 and E or C and F. When the blot strips were incubated with peptides C and F either singly or in combination, VP16 bindincg to VP22trunc was not prevented (FIG. 7A, lanes 3, 6 and 8).

T1 sequence (P06492 whole entry): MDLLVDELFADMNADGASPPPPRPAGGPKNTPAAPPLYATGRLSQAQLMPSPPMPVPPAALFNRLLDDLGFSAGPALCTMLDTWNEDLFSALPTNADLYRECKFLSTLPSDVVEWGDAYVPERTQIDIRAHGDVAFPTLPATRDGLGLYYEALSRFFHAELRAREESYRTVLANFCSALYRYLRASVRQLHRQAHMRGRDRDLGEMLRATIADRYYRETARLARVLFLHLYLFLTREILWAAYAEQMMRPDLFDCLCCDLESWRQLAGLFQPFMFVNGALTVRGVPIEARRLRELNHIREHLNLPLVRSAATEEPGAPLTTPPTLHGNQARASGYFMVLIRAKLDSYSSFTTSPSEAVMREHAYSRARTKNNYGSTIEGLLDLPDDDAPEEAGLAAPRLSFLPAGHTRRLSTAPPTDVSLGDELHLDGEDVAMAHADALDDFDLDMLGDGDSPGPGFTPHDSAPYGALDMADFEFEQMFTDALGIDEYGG
T2 sequence (P06492 whole entry): as above

| Sequence | Direct binding of VP16 to plate-coated peptide (ELISA) (VP16) | Solubility [1] | Inhibition of VP16 binding to VP22trunc in ELISA [2] | Blocking of VP16 binding to immobilised VP22trunc (Far Western), crude peptides ([3]; strips pre-incubated with 1 mg of crude peptide, FIG. 7A) | Blocking of VP16 binding to immobilised VP22trunc (Far Western), repeat with purified peptides D and E ([3]; strips pre-incubated with 1 mg peptide, D and E purified, FIG. 7B) |
| --- | --- | --- | --- | --- | --- |
| DVVQDVPDPERKTPRVTGG [Peptide J] | binding did not occur | soluble |  |  |  |
| GSHMARTAPTRSKTPAQGLA [Peptide A] | binding did not occur | soluble |  |  |  |
| KTPAQGLARKLHFSTAPPNP [Peptide B] | binding did not occur | soluble | neither peptides B, C nor F had any effect |  |  |
| NLLQRANELVNPDVVQDVPD [Peptide I] | binding did not occur | soluble |  |  |  |
| PRTDEDLNELLGITTIRVTV [Peptide G] | binding did not occur | partly; also recorded: partially insoluble |  |  |  |
| RMAAVQLWDMSRPRTDEDLN [Peptide F] | binding did not occur | soluble | neither peptides B, C nor F had any effect | not prevented | had no effect |
